Measured values from PMC10038052.
Like-named read-outs stand apart in the source and are kept apart here.

What was measured:
Test in all cases: fluorescence polarization
SRSF1 RRM1+2 [1] = biological target: T1, SRSF1 RRM1+2 (UniProt Q07955 1-195)
MBP-hnRNP A2/B1 (1-251) [2] = biological target: T2, MBP-hnRNP A2/B1 (1-251) (UniProt P22626 1-251)
MBP-hnRNP A2/B1 (1-251) [3] = biological target: T2, MBP-hnRNP A2/B1 (1-251); remark: listed apart in the source
MBP-hnRNP A2/B1 (1-251) [4] = biological target: T2, MBP-hnRNP A2/B1 (1-251); remark: listed apart in the source
SRSF1 RRM1+2 [5] = biological target: T1, SRSF1 RRM1+2; remark: listed apart in the source

T2 sequence (P22626 1-251): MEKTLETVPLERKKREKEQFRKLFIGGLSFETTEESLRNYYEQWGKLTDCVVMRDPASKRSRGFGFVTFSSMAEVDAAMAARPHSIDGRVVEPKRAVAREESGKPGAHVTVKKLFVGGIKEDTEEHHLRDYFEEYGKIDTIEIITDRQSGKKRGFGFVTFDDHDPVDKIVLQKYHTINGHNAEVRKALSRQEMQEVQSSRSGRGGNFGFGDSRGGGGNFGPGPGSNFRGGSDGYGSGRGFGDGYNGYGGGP
T1 sequence (Q07955 1-195): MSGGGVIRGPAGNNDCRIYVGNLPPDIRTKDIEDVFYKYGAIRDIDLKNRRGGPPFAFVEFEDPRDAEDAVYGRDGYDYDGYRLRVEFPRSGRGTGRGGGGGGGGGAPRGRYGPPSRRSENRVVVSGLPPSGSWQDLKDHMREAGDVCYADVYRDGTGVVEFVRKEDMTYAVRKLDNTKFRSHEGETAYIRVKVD

AGAAGAACAGAAGAACAGAAGAAC (ssRNA) [FAM-S3 (A3 3n)] gave a Kd (SRSF1 RRM1+2 [1]) of 42.5 ± 33.9 nM.

Binder AAGGACUAGCAAGGACUAGCAAGGACUAGC (ssRNA) [FAM-H3 (10 mer 3n)] has a Kd (MBP-hnRNP A2/B1 (1-251) [2]) of 24 ± 8.1 nM.

AAGGACUAGCAAGGACUAGC (ssRNA) [FAM-H2 (10 mer 2n)] was tested, and the Kd (MBP-hnRNP A2/B1 (1-251) [3]) was 135 ± 9 nM.

AAGGACUAGC (ssRNA) [FAM-H1 (10 mer 1n)] gave a Kd (MBP-hnRNP A2/B1 (1-251) [4]) of 51.7 ± 9 nM.

For AGAAGAACAGAAGAAC (ssRNA) [FAM-S2 (A3 2n)], the Kd (SRSF1 RRM1+2 [5]) was 56.1 ± 17.5 nM.
